Test [1] addresses HLA-DRB1*09:01 MHCII molecule (human). As to the kind of experiment: saturation binding ELISA. Background: ELISA stands for enzyme-linked immunosorbent assay.
Test [2] concerns the target HLA-DRB1*01:01 MHCII molecule (human). As to the kind of experiment: saturation binding ELISA.
For test [3], the target named is HLA-DRB1*08:01 MHCII molecule (human). As to the kind of experiment: saturation binding ELISA.
In test [4] the target is HLA-DRB1*15:01 MHCII molecule (human). In words: saturation binding ELISA.
Test [5] has as its target HLA-DRB1*11:01 MHCII molecule (human). As to the kind of experiment: saturation binding ELISA.
In test [6] the target is HLA-DRB1*04:01 MHCII molecule (human). As to the kind of experiment: saturation binding ELISA.
For test [7], the target named is HLA-DRB1*01:01 MHCII molecule (human). As to the kind of experiment: saturation binding ELISA; pH 5; second sample.
Test [8] concerns the target HLA-DRB1*09:01 MHCII molecule (human). As to the kind of experiment: saturation binding ELISA; pH 5.
Test [9] addresses HLA-DRB1*01:01 MHCII molecule (human). In words: saturation binding ELISA; pH 5.
The target of test [10] is HLA-DRB1*08:01 MHCII molecule (human). As to the kind of experiment: saturation binding ELISA; pH 5.
Test [11] concerns the target HLA-DRB1*15:01 MHCII molecule (human). In words: saturation binding ELISA; pH 5.
Test [12] has as its target HLA-DRB1*11:01 MHCII molecule (human). In words: saturation binding ELISA; pH 5.
Test [13] concerns the target HLA-DRB1*04:01 MHCII molecule (human). In words: saturation binding ELISA; pH 5.

Where no end group is shown, it is not given here.

Broadly, the Kd is a measure of binding affinity in units of concentration. A lower Kd goes with tighter binding.

B1: biotinylated high affinity huCLIP (peptide)
peptide: PVSKMRMATPLLMQA
modifications: also: biotinylated, position not given here
Turning to B1, the Kd in test [1] is 510 nM; in [2] it was 6.09 nM; in [3], 14.4 nM; in test [4] it was 109 nM; in [5], 24.5 nM; in test [6], 183 nM. The Kd in test [7] is 8.7 nM; in test [8], 380 nM; in [9] it was 7.1 nM; in test [10] it was 16.8 nM; in test [11] it was 87.9 nM; in [12], 30.9 nM. Binding in [13] was characterised by a dissociation constant (Kd) of 200 nM.
